Assays:
Test in all cases: NMR
Conditions in all cases: folded, free wild-type ubiquitin
Asp21 = Asp21 (UniProt position 21, EVEPSDTIENV)
Asp32 = Asp32 (UniProt position 32, KAKIQDKEGIP)
Asp39 = Asp39 (UniProt position 39, EGIPPDQQRLI)
Asp58 = Asp58 (UniProt position 58, GRTLSDYNIQK)
Glu16 = Glu16 (UniProt position 16, KTITLEVEPSD)
Glu18 = Glu18 (UniProt position 18, ITLEVEPSDTI)
Glu34 = Glu34 (UniProt position 34, KIQDKEGIPPD)
Glu51 = Glu51 (UniProt position 51, AGKQLEDGRTL)
Glu64 = Glu64 (UniProt position 64, YNIQKESTLHL)
[1] = 298 K, not stated (20 mM d-Tris-HCl buffer, no added salt stated), 20 mM d-Tris-HCl, 1-1.5 mM
[2] = 303 K, 100 mM KCl, cited from earlier work

In the case of “Ubiquitin (wild type) (not stated (Homo sapiens inferred))”, the pKa (Asp21; [1]) is given as 2.98 ± 0.03, the pKa (Asp21; [2]) is given as 3.1 and the pKa (Asp32; [1]) is given as 3.68 ± 0.03. The pKa (Asp32; [2]) was 3.8, the pKa (Asp39; [1]) was 3.52 ± 0.02 and the pKa (Asp39; [2]) was 3.6. For the same substance, the pKa (Asp58; [1]) was 3.47 ± 0.02, the pKa (Asp58; [2]) was 3.7 and the pKa (Glu16; [1]) was 4.07 ± 0.02. For the same substance, the pKa (Glu16; [2]) was 3.9, the pKa (Glu18; [1]) was 4.26 ± 0.03 and the pKa (Glu18; [2]) was 4.3. The pKa (Glu34; [1]) was 4.16 ± 0.03, the pKa (Glu34; [2]) was 4.5 and the pKa (Glu51; [1]) was 3.69 ± 0.02. For the same substance, the pKa (Glu51; [2]) was 3.8, the pKa (Glu64; [1]) was 4.26 ± 0.02 and the pKa (Glu64; [2]) was 4.5.

Reference: publication PMC6151440
